In test [1] the target is T1, human CD70 expressed on the surface of cells (human, UniProt P32970 1-193).
T1 construct: whole, on cells; also called cell surface expressed CD70; CD70 on cells
T1 sequence (looked up): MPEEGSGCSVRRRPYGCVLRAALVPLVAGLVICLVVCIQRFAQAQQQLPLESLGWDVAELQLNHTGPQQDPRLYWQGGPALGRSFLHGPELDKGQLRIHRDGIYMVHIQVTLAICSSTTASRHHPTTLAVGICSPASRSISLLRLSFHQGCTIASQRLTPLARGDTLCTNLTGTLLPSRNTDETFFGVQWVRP
The experiment in a line: FACS MFI at 37 C, HH cells; reference SGN70. The protocol:
(§1) Several cancer cell lines were tested by FACS analysis for binding of ARGX-110 and SGN70 (described in US2010/0129362) at saturating mAb concentrations (at least 2 μg/ml). This was either done at 4° C. (1 hour incubation of cells with mAbs) or at 37° C. (15 minutes incubation of cells with mAbs). Binding was detected using anti-hIgG1-Fc-FITC (AF006, Binding Site) or anti-hIgG1-Fc-PE antibody (eBioscience, 12-4998). Fluorescence was measured using a flow cytometer.

The target in test [2] is T1, human CD70 expressed on the surface of …. The experiment in a line: FACS MFI at 37 C, Raji cells; reference SGN70. As for the experimental part:
as §1

The target is the same in test [3]. The experiment in a line: FACS MFI at 37 C, U266 cells; reference SGN70. As for the experimental part: as §1
Test [4] has the same target. The experiment in a line: FACS MFI at 37 C, PANC-1 cells; reference SGN70. The protocol:
as §1

Another test addresses T2, mouse Flag-TNC-CD70 (mouse, UniProt O55237 45-195).
T2 construct: extracellular domain; also called mouse CD70; not shown: Flag tag and TNC trimerisation domain
T2 sequence (looked up): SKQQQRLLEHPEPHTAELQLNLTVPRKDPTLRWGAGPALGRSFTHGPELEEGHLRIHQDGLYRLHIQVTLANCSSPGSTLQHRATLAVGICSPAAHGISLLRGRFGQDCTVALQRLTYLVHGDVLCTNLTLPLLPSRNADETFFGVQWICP
The experiment in a line: ELISA; mouse Flag-TNC-CD70 captured by anti-Flag mAb. (In general: ELISA stands for enzyme-linked immunosorbent assay.)

The target in test [5] is T3, recombinant human CD70 (Flag-TNC-CD70) (human, UniProt P32970 39-193).
T3 construct: extracellular domain; Captured by anti-Flag mAb in ELISA; as 'recombinant human CD70' immobilised on Biacore CM5 chips; TNC is for trimerisation; also called recombinant CD70; human recombinant CD70; not shown: Flag tag and TNC trimerisation domain
T3 sequence (looked up): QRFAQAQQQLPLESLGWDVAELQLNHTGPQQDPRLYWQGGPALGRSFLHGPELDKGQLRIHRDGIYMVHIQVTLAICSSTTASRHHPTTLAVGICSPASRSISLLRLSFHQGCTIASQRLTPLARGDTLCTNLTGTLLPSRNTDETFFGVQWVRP
The experiment in a line: blocking ELISA; human Flag-TNC-CD70; competitor CD27-Fc. The protocol:
(§2) In this assay, a microtiter plate (Nunc Maxisorb) was first coated with 100 μl anti-FLAG M2 monoclonal antibody (Sigma Aldrich, F3165) at 1250-fold dilution in PBS (to achieve a final concentration of approximately 3.5 μg/ml) overnight at 4° C. The plate was washed once with PBS-Tween and incubated at RT for 2 hours with 300 μl PBS-1% casein. The plate was washed a further three times with PBS-Tween. 100 μl of 5 ng/ml (80 pM) Flag-TNC-CD70 (The Journal of Immunology, 2009, 183: 1851-1861) diluted in PBS-0.1% casein was added to the plate and incubated at RT for 1 hour while shaking. The plate was washed five times with PBS-Tween. The CD70 mAb to be tested was added to the plate; various concentrations were achieved by diluting the stock antibody solution in PBS-0.1% casein. Immediately thereafter, 50 μl of 1 μg/ml (final concentration 6.5 nM) recombinant human CD27 Fc chimera (R&D systems 382-CD, MW=46.5 kDa) was added, and incubated at RT for 1 hour while shaking. The plate was washed five times with PBS Tween. 100 μl of biotinylated anti-CD27 (eBioscience 13-0271), diluted 500-fold in PBS-0.1% casein, was added, and the plate incubated at RT for a further hour, while shaking. The plate was washed five times with PBS Tween. […] 100 μl TMB was added to the plate and the OD at 620 nm was measured. […]

Test [6] deals with T3, recombinant human CD70 (Flag-TNC-CD70). The experiment in a line: blocking ELISA; competitor CD27-Fc; references SGN70 and MDX1411. As for the experimental part:
as §2

For test [7] the target is unchanged. The experiment in a line: blocking ELISA; Flag-TNC-CD70 captured by anti-FLAG M2; competitor CD27-Fc 6.5 nM. As for the experimental part: as §2
In test [8] the target is T1, human CD70 expressed on the surface of …. The experiment in a line: flow cytometry on SU-DHL-6 cells, 1 h at 4 °C, anti-hIgG1-Fc-FITC or anti-hIgG-Fc-PE [panel SU-DHL-6]. The protocol:
[…] This was either done at 4° C. (1 hour incubation of cells with mAbs) or at 37° C. (15 minutes incubation of cells with mAbs). Binding was detected using anti-hIgG1-Fc-FITC (AF006, Binding Site) or anti-hIgG1-Fc-PE antibody (eBioscience, 12-4998). Fluorescence was measured using a flow cytometer.
In general terms: In flow cytometry, cells or beads pass a laser one at a time.

One may read the IC50 as the point on the concentration scale where inhibition reaches its midpoint. For orientation: EC50 (read off the curve) means the midpoint of the concentration-response curve. The low end stands for greater potency, the high end for weaker potency.

B1: ARGX-110 (non-fucosylated 41D12 human IgG1) (antibody, V domains shown)
VH: EVQLVESGGGLVQPGGSLRLSCAASGFTFSVYYMNWVRQAPGKGLEWVSDINNEGGTTYYADSVKGRFTISRDNSKNSLYLQMNSLRAEDTAVYYCARDAGYSNHVPIFDSWGQGTLVTVSS
VL: QAVVTQEPSLTVSPGGTVTLTCGLKSGSVTSDNFPTWYQQTPGQAPRLLIYNTNTRHSGVPDRFSGSILGNKAALTITGAQADDEAEYFCALFISNPSVEFGGGTQLTVLG
notes: also called 41D12 (ARGX-110)
In the case of B1, the “Signal in FACS of ARGX-110/signal in FACS of SGN70” value in [1] came to 1.7 ratio; in test [2], 1.2 ratio; in test [3], 0.8 ratio; in test [4] it was 2.9 ratio. The binding result with mouse Flag-TNC-CD70 is given as “no binding (tested: dilution series from 10 µg/ml)”. For the same molecule, the values for the IC50 in [5] and in test [7] were 0.039 µg/mL and 0.067 µg/mL, respectively. In test [6], the “fold more potent in blocking than the two benchmark mAbs” value is around 100 fold. For the same molecule, in test [8], the “EC50 (read off the curve)” value is around 2000 ng/mL.

Source of the values: patent US20150266963A1 (ARGEN X B V, published 2015).
